This is an account of results in patent publication US20020115167A1 (published 2002).

Assay [1] has as its target T1, GST-fusion protein containing the N-terminal domain of Dsh (Drosophila, UniProt P51140 1-166).
T1 construct: domain: N-terminal; not shown: glutathione-S-transferase (GST) fusion partner
T1 sequence (looked up): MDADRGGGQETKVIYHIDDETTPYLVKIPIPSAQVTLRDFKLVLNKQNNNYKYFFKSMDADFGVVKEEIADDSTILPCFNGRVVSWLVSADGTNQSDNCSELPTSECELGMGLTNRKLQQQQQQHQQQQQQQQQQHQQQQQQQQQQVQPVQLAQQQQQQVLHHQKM
Nature of the assay: GST-fusion pull-down from Drosophila embryo lysates, in vitro kinase assay. The method, then:
(§1) Dsh is known to be progressively phosphorylated in Drosophila during the stages of embryonic development known to require Wnt. The stoichiometry of this phosphorylation is high and supports the importance of this reaction. To identify the kinase that phosphorylates Dsh, various regions of Dsh were tested for their ability to physically interact with this kinase. Equal amounts of lysates prepared from staged Drosophila embryos were blotted with anti-Dsh antibody. Only the GST-fusion protein containing the middle (DM), but not the N-terminal or C-terminal domain of Dsh, interacted with this kinase activity from Drosophila embryos. The Dsh- associated kinase activity, which was precipitated with GST-DM, increased as Dsh became progressively phosphoylated during development.
(§2) To perform the kinase assay, the embryos or cells were lysed in lysis buffer (50 mM HEPES [pH 7.6], 100 mM NaCl, 0.5% Nonidet P-40, 10 mM NaF, 5 mM NaPPi, 1.5 mM MgCl₂, 1 mM EGTA, 10% glycerol, and protease inhibitors). Cleared cell lysates were incubated with GST fusion proteins immobilized on glutathione agarose beads for two to four hours at 4° C. The glutathione beads were washed three times with lysis buffer and once with kinase buffer (50 mM Tris [pH7.6], 10 mM MgCl₂). […]

Assay [2] concerns the target T2, GST-fusion protein containing the C-terminal domain of Dsh (Drosophila, UniProt P51140 395-623).
T2 construct: domain: C-terminal; not shown: glutathione-S-transferase (GST) fusion partner
T2 sequence (looked up): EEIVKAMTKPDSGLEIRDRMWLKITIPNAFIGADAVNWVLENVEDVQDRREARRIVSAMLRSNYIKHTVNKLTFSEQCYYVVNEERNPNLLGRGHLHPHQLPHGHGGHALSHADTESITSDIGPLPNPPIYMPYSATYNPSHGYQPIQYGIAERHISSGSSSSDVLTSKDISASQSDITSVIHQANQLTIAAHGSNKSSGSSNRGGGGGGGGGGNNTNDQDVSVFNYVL
The description is as above. The method, then:
as §1, §2

The target in assay [3] is T3, Dishevelled (Dsh) protein, Drosophila (Drosophila, UniProt P51140 1-623, progressively phosphorylated during development (sites not given)).
T3 construct: also called endogenous Dsh
T3 sequence (looked up): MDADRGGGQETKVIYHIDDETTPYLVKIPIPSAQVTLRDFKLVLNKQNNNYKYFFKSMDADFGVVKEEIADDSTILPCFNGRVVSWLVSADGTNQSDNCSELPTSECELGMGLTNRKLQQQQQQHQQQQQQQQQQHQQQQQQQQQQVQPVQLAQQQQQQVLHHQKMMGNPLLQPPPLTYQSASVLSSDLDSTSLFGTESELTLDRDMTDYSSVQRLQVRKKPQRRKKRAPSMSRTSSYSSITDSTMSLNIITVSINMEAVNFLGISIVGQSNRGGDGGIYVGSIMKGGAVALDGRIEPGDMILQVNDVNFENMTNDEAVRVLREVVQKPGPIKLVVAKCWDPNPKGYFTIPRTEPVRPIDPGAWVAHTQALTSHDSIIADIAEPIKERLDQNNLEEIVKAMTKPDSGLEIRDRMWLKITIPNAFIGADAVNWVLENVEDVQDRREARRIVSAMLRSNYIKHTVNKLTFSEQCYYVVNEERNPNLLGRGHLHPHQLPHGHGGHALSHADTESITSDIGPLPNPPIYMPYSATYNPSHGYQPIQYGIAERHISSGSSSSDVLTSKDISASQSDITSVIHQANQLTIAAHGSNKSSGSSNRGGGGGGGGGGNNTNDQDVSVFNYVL
Nature of the assay: immunoprecipitation of Dsh from Drosophila embryos, in vitro kinase assay; the kinase was eluted with 700 mM NaCl. The method, then:
To clone the Dsh-associated kinase, Dsh was immunoprecipitated from Drosophila embryos with preimmune and affinity-purified immune serum, and subjected to an in vitro kinase assay or blotted with anti-Dsh serum. Dsh immunoprecipitates were washed with 700 mM NaCl to elute the associated kinase. The eluted kinase was recovered after dilution by precipitation with GST-fusion proteins. The kinase was purified 60,000-fold from Drosophila embryos and several peptide sequences were then used to clone the cDNA of this kinase. After screening a Drosophila embryo cDNA library with oligo probes designed based on peptide sequences, the cDNA that encodes the kinase was cloned. The cDNA clones encode a protein kinase that is homologous to the C. elegans protein PAR-1 (85% identity in the kinase domain and 42% identity overall). […] Importantly, the kinase activity that was precipitated using GST-DM increased as Dsh became progressively phosphorylated during development. The kinase activity was also present in Dsh immunoprecipitates.
To perform the kinase assay, the embryos or cells were lysed in lysis buffer (50 mM HEPES [pH 7.6], 100 mM NaCl, 0.5% Nonidet P-40, 10 mM NaF, 5 mM NaPPi, 1.5 mM MgCl₂, 1 mM EGTA, 10% glycerol, and protease inhibitors). Cleared cell lysates were incubated with GST fusion proteins immobilized on glutathione agarose beads for two to four hours at 4° C. […]

B1: Drosophila PAR-1 (dPAR-1), the Dishevelled-associated kinase (enzyme)
chain: MSTAMRTTLQSVPEALPADSVSNGTASNVAAPAAPVSSATNAVPPLAAVSSTTATYATNSISTSSHSVKDQQQQQQQQQHDSANANIVSLPPTTTPVANTNTMMPIVTSSNSATSNSTAATPTPASGAAATGGVGSVSQGPATVSASAANTNHSHQHSHQHHHHVANNMTTDGARLSSNNSAVVASSAINHHHHHTPGSGVAPTVNKNVLSTHSAHPSAIKQRTSSAKGSPNMQMRSSAPMRWRATEEHIGKYKLIKTIGKGNFAKVKLAKHLPTGKEVAIKIIDKTQLNPGSLQKLFREVRIMKMLDHPNIVKLFQVIETEKTLYLIMEYASGGEVFDYLVLHGRMKEKEARVKFRQIVSAVQYCHQKRIIHRDLKAENLLLDSELNIKIADFGFSNEFTPGSKLDTFCGSPPYAAPELFQGKKYDGPEVDVWSLGVILYTLVSGSLPFDGSTLRELRERVLRGKYRIPFYMSTDCENLLRKFLVLNPAKRASLETIMGDKWMNMGFEEDELKPYIEPKADLADPKRIEALVAMGYNRSEIEASLSQVRYDDVFATYLLLGRKSTDPESDGSRSGSSLSLRNISGNDAGANAGSASVQSPTHRGVHRSISASSTKPSRRASSGAETLRVGPTNAAATVAAATGAVGAVNPSNNYNAAGSAADRASVGSNFKRQNTIDSATIKENTARLAAQNQRPASATQKMLTTADTTLNSPAKPRTATKYDPTNGNRTVSGTSGIIPRRSTTLYEKTSSTEKTNVIPAETKMASAVKSSRHFPRNVPSRSTFHSGQTRARNNTALEYSGTSGASGDSSHPGRMSFFSKLSSRFSKRPNQ
notes: Endogenous kinase from Drosophila embryo or Clone-8 cell lysates; In-gel bands of 110 kDa, 64 kDa and 130 kDa (minor) are said to be the kinase and its major fragment; also called Dsh-associated kinase; the kinase
Regarding B1, the binding result in assay [1] is “no binding”; in assay [2], “no binding”; in assay [3], “binds”.
